One assay concerns the target T1, GST-σ^G (Bacillus subtilis, UniProt P19940 1-260).
T1 construct: RNA polymerase sigma-G factor of Bacillus subtilis; coding region of sigG amplified with primers sigG2016D and sigG2964R from pMS45 and cloned into pGex4T-3; also called GST-σ^Gwt; GST-σ^G fusion protein (wt); not shown: GST, N-terminal, kept
T1 sequence (looked up): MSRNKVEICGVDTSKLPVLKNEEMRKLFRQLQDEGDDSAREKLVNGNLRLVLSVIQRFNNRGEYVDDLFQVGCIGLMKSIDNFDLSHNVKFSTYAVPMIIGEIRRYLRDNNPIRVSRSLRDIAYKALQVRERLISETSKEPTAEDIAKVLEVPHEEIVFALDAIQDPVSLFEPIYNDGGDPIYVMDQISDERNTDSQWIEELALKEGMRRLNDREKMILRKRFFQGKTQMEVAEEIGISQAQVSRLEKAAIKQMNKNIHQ
The experiment in a line: pull-down; GST or GST-σ^G fusions on glutathione Sepharose beads; 100 nM purified CsfB-Strep II tag; 30 min at room temperature; washed three times in 200 mM NaCl, 10 mM Tris-HCl pH 8.0, 10% glycerol; immunoblot with anti-Strep II tag; densitometry, average of three experiments. To be noted: both partners purified.

In assay [1] the target is T2, GST-σ^GN45A (Bacillus subtilis, UniProt P19940 1-260, N45A).
T2 construct: RNA polymerase sigma-G factor of Bacillus subtilis; coding region of sigGN45A amplified from pJS4 and cloned into pGex4T-3; not shown: GST, N-terminal, kept
T2 sequence (looked up): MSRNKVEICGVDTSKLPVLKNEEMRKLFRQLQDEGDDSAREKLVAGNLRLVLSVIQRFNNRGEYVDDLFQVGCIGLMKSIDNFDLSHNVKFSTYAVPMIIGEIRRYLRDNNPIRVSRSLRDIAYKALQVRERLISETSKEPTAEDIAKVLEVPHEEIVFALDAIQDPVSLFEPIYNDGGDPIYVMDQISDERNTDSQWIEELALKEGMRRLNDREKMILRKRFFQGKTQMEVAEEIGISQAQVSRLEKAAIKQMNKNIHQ
The description is as above. To be noted: both partners purified.

The target in assay [2] is GST-σ^GN45E (Bacillus subtilis) (UniProt P19940). The description is as above.
Assay [3] concerns the target T2, GST-σ^GN45A. Put plainly: pull-down; GST or GST-σ^G fusions on glutathione Sepharose beads; soluble extract of B. subtilis AH6608 (CsfB-GFP) 2 h after the onset of sporulation; 30 min at room temperature; washed three times in 200 mM NaCl, 10 mM Tris-HCl pH 8.0, 10% glycerol; immunoblot with anti-GFP and anti-SpoIIAB; densitometry, average of three experiments. The note with it: one partner purified.

The target in assay [4] is GST-σ^GN45E (Bacillus subtilis) (UniProt P19940). The description is as above.

B1: CsfB-Strep II tag (natural protein, Bacillus subtilis, UniProt P37534 1-64, looked up)
chain: MDETVKLNHTCVICDQEKNRGIHLYTKFICLDCERKVISTSTSDPDYAFYVKKLKSIHTPPLYS
notes: anti-sigma-G factor CsfB (Gin) of Bacillus subtilis; coding region of csfB amplified with primers csfB191D and csfBstrepR (which carries the Strep II tag) and cloned between NcoI and BamHI of pET16b; also called CsfB-Strep II-tagged protein; purified CsfB; source: E. coli BL21(DE3) grown in LB, purified (Strep-Tactin Sepharose); not shown: Strep II tag, C-terminal, kept
B1: the binding result with GST-σ^G is recorded as “binds”. Further, the “efficiency of the pull-down relative to the wild type” value with GST-σ^GN45A [1] was ~0.6 × the efficiency of the wild type. For the same molecule, the efficiency of the pull-down relative to the wild type (× of the wild type) in assay [2] came out at 0.2.

B2: CsfB-GFP fusion (natural protein, Bacillus subtilis, UniProt P37534 1-64, looked up)
chain: MDETVKLNHTCVICDQEKNRGIHLYTKFICLDCERKVISTSTSDPDYAFYVKKLKSIHTPPLYS
notes: anti-sigma-G factor CsfB (Gin) of Bacillus subtilis, functional fusion to GFP; The construction of the csfB-gfp fusion stands in Text S1; source: B. subtilis AH6608 (csfB::km ΔsigG ΔamyE::csfB-gfp), soluble extract 2 h after the onset of sporulation in DSM
As to B2, the “efficiency of the pull-down relative to the wild type” value with GST-σ^GN45A [3] is 0.7 × of the wild type. The efficiency of the pull-down relative to the wild type (× of the wild type) in assay [4] was found to be 0.4.

(Values after paper PMC3174212, “A Negative Feedback Loop That Limits the Ectopic Activation of a Cell Type–Specific Sporulation Sigma Factor of Bacillus subtilis” (PLoS Genetics, 2011).)
